What was measured:
[1] = system: Nc1ncnc2c1ncn2[C@@H]1O[C@H](COP(=O)(O)OP(=O)(O)OP(=O)(O)O)[C@@H](O)[C@H]1O; experiment: purified protein; type: biochemical, Deinococcus geothermalis; conditions: ssDNA-dependent (80-nt oligonucleotide, 12.16 μM nucleotides), 11.56 mM MgCl2, 20 mM Tris-HCl pH 7.5, 37 °C, Hill fit, n 2.9
[2] = system: Nc1ncnc2c1ncn2[C@H]1C[C@H](O)[C@@H](COP(=O)(O)OP(=O)(O)OP(=O)(O)O)O1; experiment: purified protein; type: biochemical, Deinococcus geothermalis; conditions: ssDNA-dependent (80-nt oligonucleotide, 12.16 μM nucleotides), 11.56 mM MgCl2, 20 mM Tris-HCl pH 7.5, 37 °C, Hill fit, n 1.2

In the case of “DgeRecA (Deinococcus geothermalis DSM 11300)”, the Km [1] is reported as 560 ± 18 µM, the kcat [1] is reported as 0.15 ± 0.004 s⁻¹ and the kcat/Km [1] is reported as 270 ± 12 M⁻¹ s⁻¹. It also gave a Km [2] of 620 ± 23 µM, a kcat [2] of 0.21 ± 0.007 s⁻¹ and a kcat/Km [2] of 330 ± 10 M⁻¹ s⁻¹.

Source: publication PMC3103430, “RecA Proteins from Deinococcus geothermalis and Deinococcus murrayi - Cloning, Purification and Biochemical Characterisation” (BMC Molecular Biology, 2011)
